From publication PMC8860610

Tests used:
[1] = molecular target: yeast nucleosome (histone octamer on 147-bp Widom 601 DNA) (Saccharomyces cerevisiae) (UniProt P04911)
[2] = molecular target: Tof1-Csm3 (full-length, CBP-tagged) (Saccharomyces cerevisiae) (UniProt P53840)
[3] = molecular target: yeast nucleosome (histone octamer on 147-bp Widom 601 DNA) (Saccharomyces cerevisiae) (UniProt P04911); remark: listed apart in the source
[4] = molecular target: yeast nucleosome (histone octamer on 147-bp Widom 601 DNA) (Saccharomyces cerevisiae) (UniProt P04911); remark: listed apart in the source

Chain of yeast nucleosome (histone octamer on 147-bp Widom 601 DNA) (Saccharomyces cerevisiae) (P04911 whole entry, chain 1 of 4, other chains not shown): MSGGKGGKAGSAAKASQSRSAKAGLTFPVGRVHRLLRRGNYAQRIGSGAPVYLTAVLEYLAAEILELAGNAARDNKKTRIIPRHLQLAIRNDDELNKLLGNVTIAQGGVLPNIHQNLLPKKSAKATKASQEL
Chain of yeast nucleosome (histone octamer on 147-bp Widom 601 DNA) (Saccharomyces cerevisiae) (P02293 whole entry, chain 2 of 4, other chains not shown, further chain): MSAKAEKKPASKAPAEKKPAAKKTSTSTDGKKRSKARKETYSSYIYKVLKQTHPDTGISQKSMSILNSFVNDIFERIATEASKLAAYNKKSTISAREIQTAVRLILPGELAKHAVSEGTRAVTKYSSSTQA
Chain of Tof1-Csm3 (full-length, CBP-tagged) (Saccharomyces cerevisiae) (P53840 whole entry, chain 1 of 2): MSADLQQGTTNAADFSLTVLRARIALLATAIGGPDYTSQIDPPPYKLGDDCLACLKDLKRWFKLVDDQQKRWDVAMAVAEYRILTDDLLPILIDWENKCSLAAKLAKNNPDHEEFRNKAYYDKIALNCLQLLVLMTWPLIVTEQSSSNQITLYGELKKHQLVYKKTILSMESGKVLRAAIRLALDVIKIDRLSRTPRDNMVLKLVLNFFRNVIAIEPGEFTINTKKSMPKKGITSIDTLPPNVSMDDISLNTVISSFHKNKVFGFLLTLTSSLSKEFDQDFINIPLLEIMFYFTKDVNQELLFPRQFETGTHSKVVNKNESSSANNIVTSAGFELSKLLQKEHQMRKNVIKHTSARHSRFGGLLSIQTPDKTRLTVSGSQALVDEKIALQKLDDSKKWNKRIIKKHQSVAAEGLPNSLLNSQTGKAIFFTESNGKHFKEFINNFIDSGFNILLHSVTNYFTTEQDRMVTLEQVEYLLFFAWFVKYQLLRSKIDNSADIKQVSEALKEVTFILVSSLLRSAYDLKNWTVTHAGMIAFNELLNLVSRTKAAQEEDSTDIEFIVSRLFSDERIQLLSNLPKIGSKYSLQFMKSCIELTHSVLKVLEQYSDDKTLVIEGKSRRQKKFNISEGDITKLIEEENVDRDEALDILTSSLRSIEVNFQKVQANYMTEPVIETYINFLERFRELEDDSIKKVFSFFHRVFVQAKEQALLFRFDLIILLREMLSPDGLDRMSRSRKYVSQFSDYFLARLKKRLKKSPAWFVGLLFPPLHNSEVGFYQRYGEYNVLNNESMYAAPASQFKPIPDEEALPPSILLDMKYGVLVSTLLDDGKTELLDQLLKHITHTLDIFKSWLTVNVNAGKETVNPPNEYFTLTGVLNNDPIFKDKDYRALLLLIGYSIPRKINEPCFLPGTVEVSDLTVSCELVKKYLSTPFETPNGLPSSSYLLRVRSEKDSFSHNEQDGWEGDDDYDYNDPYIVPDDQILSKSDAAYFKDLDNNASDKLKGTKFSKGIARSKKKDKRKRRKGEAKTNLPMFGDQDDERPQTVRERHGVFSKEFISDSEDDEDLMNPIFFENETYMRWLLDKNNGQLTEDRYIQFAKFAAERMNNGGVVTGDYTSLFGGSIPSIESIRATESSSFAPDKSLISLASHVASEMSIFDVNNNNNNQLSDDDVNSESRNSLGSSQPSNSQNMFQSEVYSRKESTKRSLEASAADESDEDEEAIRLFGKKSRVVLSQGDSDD
Chain of Tof1-Csm3 (full-length, CBP-tagged) (Saccharomyces cerevisiae) (Q04659 whole entry, chain 2 of 2, further chain): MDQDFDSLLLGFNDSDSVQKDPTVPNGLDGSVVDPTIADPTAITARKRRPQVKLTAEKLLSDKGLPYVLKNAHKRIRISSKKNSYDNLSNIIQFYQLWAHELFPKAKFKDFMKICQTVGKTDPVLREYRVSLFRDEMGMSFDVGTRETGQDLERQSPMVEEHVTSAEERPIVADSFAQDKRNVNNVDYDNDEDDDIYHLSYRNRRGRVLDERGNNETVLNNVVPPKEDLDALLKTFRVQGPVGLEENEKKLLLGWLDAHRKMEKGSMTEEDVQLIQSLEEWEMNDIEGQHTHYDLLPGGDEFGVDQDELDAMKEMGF

nucleosome reorganization, loss of FRET (%), with Nhp6 [1] [%] | decrease in in vitro chromatin replication (leading-strand length), 50 nM SΔN-P against 50 nM fl FACT, 20 nM fl Tof1-Csm3; restored by 4- and 8-fold excess of SΔN-P [2] [%] | reduction of the nucleosome reorganization activity of yFACT (single-molecule FRET) when Tof1-Csm3 is added [3] [%] | nucleosome reorganization, loss of FRET (%) of Cy3/Cy5-labelled nucleosomal DNA, FACT together with Nhp6 (yFACT); nucleosome alone 9.23 [4] [%] | nucleosome reorganization, loss of FRET (%) of Cy3/Cy5-labelled nucleosomal DNA, FACT without Nhp6; nucleosome alone 9.23 [4] [%] | Substance
63 | – | – | – | – | S-PΔC (FACT lacking the C-terminus of Pob3) (from UniProt P32558 1-1035; Q04636 1-552) (complex)
46.8 | – | – | – | – | SΔC-P (FACT lacking the C-terminus of Spt16) (from UniProt P32558 1-1035; Q04636 1-552) (complex)
65 | 58 | – | – | – | SΔN-P (FACT lacking the N-terminus of Spt16) (from UniProt P32558 1-1035; Q04636 1-552) (complex)
– | – | 53 | 72.1 | 10.5 | full-length (fl) FACT (Spt16-Pob3) (from UniProt P32558 1-1035; Q04636 1-552) (complex)
